The labels stand for the following.
B1: inhibitor peptide Asf1/H3-H4 of SEQ ID No 65 (peptide)
peptide: GAMGRVPPAVRKLGNASTERKWAELARRIRGAGGVTLNGFG
B2: peptide i1 (fragment of histone H3, α3 helix) (peptide)
peptide: GAMGTIMPKDIQLARRIRG
notes: The N-terminal GAMG comes from the cloning vector
B3: inhibitor peptide Asf1/H3-H4 of SEQ ID No 74 (peptide)
peptide: GAMGTLTPKEAELARRIRGAGASGRTLNGFG
B4: Stabilized H3 fragment of SEQ ID No 72 (peptide)
peptide: GAMGTLTPKEAELARRIRG
B5: inhibitor peptide Asf1/H3-H4, peptide TAT-i42V (peptide)
peptide: GRKKRRQRRRGAMGTITPKEAQLARRIRGAGGVTLNGFG
B6: inhibitor peptide Asf1/H3-H4 of SEQ ID No 49 (peptide)
peptide: GAMGTLTPKEAELARRIRGAGRTLNGFG
B7: inhibitor peptide Asf1/H3-H4 of SEQ ID No 64 (peptide)
peptide: GAMGRVPPAVRKLGNSTERKWAELARRIRGAGGVTLNGFG
B8: inhibitor peptide Asf1/H3-H4 of SEQ ID No 73 (peptide)
peptide: GAMGTLTPKEAELARRIRGARTLNGFG
B9: inhibitor peptide Asf1/H3-H4, peptide i4_1 (peptide)
peptide: GAMGTIMPKDIQLARRIRGAGGRTLYGFG
B10: inhibitor peptide Asf1/H3-H4, peptide RRP5-i1 (peptide)
peptide: RRPRRPRRPRRPRRPGAMGTIMPKDIQLARRIRGGCA
B11: inhibitor peptide Asf1/H3-H4 of SEQ ID No 39 (peptide)
peptide: GAMGTIMPKDIQLARRIRGAGASRTLYGFG
B12: inhibitor peptide Asf1/H3-H4 of SEQ ID No 63 (peptide)
peptide: GAMGTLTPKEAELARRIRGAGGVTLNGANFVSTG
B13: inhibitor peptide Asf1/H3-H4 of SEQ ID No 52 (peptide)
peptide: GAMGLTAAEHAKRSTLTPKEAQLARRIRGAGGVTLNGFG
B14: inhibitor peptide Asf1/H3-H4 of SEQ ID No 54 (peptide)
peptide: LTAAEHAKRSTLTPKEAQLARRIEGAGASVTLNGFG
B15: inhibitor peptide Asf1/H3-H4 of SEQ ID No 55 (peptide)
peptide: B14 peptide with Q18E
B16: inhibitor peptide Asf1/H3-H4, peptide RRP5-i5 (peptide)
peptide: RRPRRPRRPRRPRRPASTERKWAELARRIRGAGGVTLNGFGGCA
B17: inhibitor peptide Asf1/H3-H4 of SEQ ID No 62 (peptide)
peptide: GAMGTLTPKEAELARRIRGAGGVTLNGFGASTG
B18: inhibitor peptide Asf1/H3-H4 of SEQ ID No 53 (peptide)
peptide: LTAAEHAKRSTLTPKEAELARRIRGAGGVTLNGFG
B19: Stabilized H3 fragment of SEQ ID No 71 (peptide)
peptide: GAMGTITPKEAQLARRIRG
B20: inhibitor peptide Asf1/H3-H4, peptide i4 (peptide)
peptide: GAMGTLTPKEAELARRIRGAGGRTLNGFG
B21: inhibitor peptide Asf1/H3-H4 of SEQ ID No 56 (peptide)
peptide: GAMGTRTPKERRLARRIRGAGGRTLNGFG
B22: inhibitor peptide Asf1/H3-H4, peptide i42V (peptide)
peptide: GAMGTITPKEAQLARRIRGAGGVTLNGFG
B23: inhibitor peptide Asf1/H3-H4 of SEQ ID No 57 (peptide)
peptide: GAMGTRTPKEARLARRIRGAGGRTLNGFG
B24: inhibitor peptide Asf1/H3-H4, peptide i4_2 (peptide)
peptide: GAMGTITPKEAQLARRIRGAGGRTLNGFG
B25: inhibitor peptide Asf1/H3-H4 of SEQ ID No 61 (peptide)
peptide: GAMGTLTPKEAELARRIRGAGGVTYDGFG
B26: inhibitor peptide Asf1/H3-H4, peptide i4V (peptide)
peptide: GAMGTLTPKEAELARRIRGAGGVTLNGFG
B27: inhibitor peptide Asf1/H3-H4 of SEQ ID No 44 (peptide)
peptide: GAMGTITPKEAQLARRIEGAGASVTLNGFG
B28: inhibitor peptide Asf1/H3-H4 of SEQ ID No 41 (peptide)
peptide: B27 peptide with E18R, V24R
B29: inhibitor peptide Asf1/H3-H4 of SEQ ID No 43 (peptide)
peptide: GAMGTLTPKEAELARRIRGAGASRTLNGFG
B30: inhibitor peptide Asf1/H3-H4 of SEQ ID No 45 (peptide)
peptide: B27 peptide with I6L, Q12E
B31: inhibitor peptide Asf1/H3-H4 of SEQ ID No 46 (peptide)
peptide: B27 peptide with A11E, A14R
B32: Peptide i5_Aloop (peptide)
peptide: ASTERKWAELARRIAGAGGVTLNGFG
B33: Peptide i5_loopA (peptide)
peptide: ASTERKWAELARRIRGAGGATLNGFG
B34: Peptide i5_D (peptide)
peptide: ASTERKWAELARRIRGAGGVTLDGFG
B35: Peptide i5_loopR (peptide)
peptide: ASTERKWAELARRIRGAGGRTLNGFG
B36: peptide of SEQ ID No 33 (peptide)
peptide: ASTRRKWAELARRIRGAGGVTLNGFG
B37: Peptide i5_s3 (peptide)
peptide: ASTEEKWARLARRIRGAGGVTLNGFG
B38: inhibitor peptide Asf1/H3-H4, peptide RRP5-i42V-CA (peptide)
peptide: RRPRRPRRPRRPRRPGAMGTITPKEAQLARRIRGAGGVTLNGFGCA
B39: inhibitor peptide Asf1/H3-H4, peptide RRP5-i42V (peptide)
peptide: RRPRRPRRPRRPRRPGAMGTITPKEAQLARRIRGAGGVTLNGFG
B40: Peptide i5mut (control peptide) (peptide)
peptide: ASTERKWAEAARRARGAGGVTLNGAG

The values that follow come from patent US20150025016A1 (COMMISSARIAT A L ENERGIE ATOMIQUE ET AUX ENERGIES …, published 2015).

Substitutions are numbered along the chain they refer to.

T1 sequence (Q9Y294 1-156 limits assumed): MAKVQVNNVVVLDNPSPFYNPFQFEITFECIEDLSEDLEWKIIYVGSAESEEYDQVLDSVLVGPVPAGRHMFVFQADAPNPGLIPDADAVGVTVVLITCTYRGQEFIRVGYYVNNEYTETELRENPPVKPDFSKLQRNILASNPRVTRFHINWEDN

The first assay concerns the target T1, Asf1 (1-156), conserved N-terminal domain of human Asf1 (human, UniProt Q9Y294 1-156).
T1 construct: range 1-156; The ITC legend says Asf1 1-156; Recombinant, cloned in peTM30; also called Asf1a 1-156
Briefly: ITC (microcalorimetry). As for the experimental part: (§1) All calorimetry experiments were carried out in 50 mM Tris buffer pH 7.4 at 5° C., unless otherwise indicated. Peptides were introduced in the syringe at a concentration of […], and Asf1 was added to the cuvette at a concentration of 30 μM or 10 μM. Calorimety tests were also conducted at 25° C. or in 50 mM Tris buffer 150 mM NaCl pH 7.4 to obtain more detailed information on the characteristics of the interactions studied.
Consider B1, for which the Kd turned out to be 60 nM.

The molecule B2 yielded a Kd of 8700 nM. Still for that read-out and setting: the value for B3 was 1890 nM; that for B4 was 2230 nM; that for B5 was 620 nM. Turning to B6, the Kd came out at 950 nM. Same read-out and setting: next, B7: 80 nM. The same measure, in the same setting: next, B8: 3890 nM; B9: 560 nM. On the same count and under the same terms, the value for B10 was 460 nM.

With B11, binding was characterised by a dissociation constant (Kd) of 350 nM. The molecule B12 came in with a Kd of 1680 nM. B13 gave a Kd of 30 nM. Same read-out and setting: the value for B14 was 120 nM; that for B15 was 880 nM; that for B16 was 670 nM. As to B17, the Kd stood at 320 nM. B18 showed a Kd of 60 nM. This Kd lies about 5.3-fold lower than the previous one.

With B19, the equilibrium dissociation constant (Kd) was 1400 nM. Still for that read-out and setting: the value for B20 was 180 nM; that for B21 was 30 nM; that for B22 was 350 nM. Still for that read-out and setting: next, B23: 260 nM.

In turn, B24 yielded a Kd of 220 nM.

Consider B25, for which binding was characterised by a dissociation constant (Kd) of 100 nM. Compared with the last molecule, the Kd is about 2.2-fold lower.

As for B26, the Kd was found to be 60 nM.

B27 yielded a Kd of 660 nM. Still for that read-out and setting: the value for B28 was 800 nM. Still for that read-out and setting: next, B29: 350 nM. With B30, binding was put at a Kd of 2000 nM.

With B31, the Kd was found to be 420 nM.

B32 returned a Kd of 27 nM. Compared with the last molecule, the Kd is about 16-fold lower. Still for that read-out and setting: the value for B33 was 63 nM; that for B34 was 9 nM; that for B35 was 29 nM. The same measure, in the same setting: next, B36: 1330 nM; B37: 20 nM; B38: 420 nM. The molecule B39 yielded a Kd of 590 nM.

A further assay concerns the target T1, Asf1 (1-156), conserved N-terminal …. Briefly: ITC (microcalorimetry); second printing of SEQ ID No 42 in a later block of the 6th table. As for the experimental part:
as §1
B20 gave a Kd of 180 nM.

Another assay deals with T2, human protein GST-Asf1 1-156 (human, UniProt Q9Y294 1-156).
T2 construct: range 1-156; also called GST-Asf1a; GST beads linked to Asf1; not shown: GST tag
T2 sequence (Q9Y294 1-156 limits assumed): as above
The assay can be described thus: competition on GST column: GST-Asf1 1-156 beads loaded with histones H3-H4, elution with 0, 5, 10, 50 and 100 µM peptide; released histone H3 shown by Western blot (anti-H3, anti-GST). As for the experimental part:
The human protein GST-Asf1 1-156 was produced and then incubated with GST beads (glutathione S transferase, Sigma). […] After washing with 50 mM Tris buffer pH8, 150 mM NaCl, 1 mM EDTA, 1 mM DTT, 0.5% NP40, the beads were incubated with different concentrations of peptide (0 to 1 mM) dissolved in the same buffer.
For B40, the binding result is listed as “no binding (tested: 100 µM)”.
